Measured values: US20180311326A1 (FRAUNHOFER GESELLSCHAFT ZUR FOERDERUNG DER ANGEWANDTEN …, published 2018)

Target: T1, AMA1_GKO-HC2.2
T1 construct: PfAMA1_GKO fused to human IgG1 constant region with K392D and K409D already in the entry; also called AMA1GKO-modHC2_K392D-K409D; PfAMA1_GKO-HC2.2-ER
Experiment: co-expression in N. benthamiana, SDS-PAGE under reducing and non-reducing conditions

B1: MSP119_3D7-HC1.2-ER (Fc fusion)
chain: ISQHQCVKKQCPENSGCFRHLDEREECKCLLNYKQEGDKCVENPNPTCNENNGGCDADATCTEEDSGSSRKKITCECTKPDSYPLFDGIFCSSSNAAAKGPSVFPLAPSSKSTSGGTAALGCLVKDYFPEPVTVSWNSGALTSGVHTFPAVLQSSGLYSLSSVVTVPSSSLGTQTYICNVNHKPSNTKVDKKVEPKSCDKTHTCPPCPAPELLGGPSVFLFPPKPKDTLMISRTPEVTCVVVDVSHEDPEVKFNWYVDGVEVHNAKTKPREEQYNSTYRVVSVLTVLHQDWLNGKEYKCKVSNKAFPAPIEKTISKAKGQPREPQVYTLPPSRDKLTKNQVSLTCLVKGFYPSDIAVEWESNGQPENNYKTTPPVLKSDGSFFLYSKLTVDKSRWQQGNVFSCSVMHEALHNHYTQKSLSLSPGKSEKDEL
notes: PfMSP119 (3D7) fused to human IgG1 constant region with E356K and D399K already in the entry; also called MSP119-modHC1_E356K-D399K; PfMSP119_3D7-HC1.2-ER
Does B1 bind?
Result: binds
